Results reported in patent US20250011420A1 (MEDICOVESTOR, published 2025).

Target: T1, recombinant 6His-Sp17 protein (UniProt Q15506 1-151)
T1 sequence: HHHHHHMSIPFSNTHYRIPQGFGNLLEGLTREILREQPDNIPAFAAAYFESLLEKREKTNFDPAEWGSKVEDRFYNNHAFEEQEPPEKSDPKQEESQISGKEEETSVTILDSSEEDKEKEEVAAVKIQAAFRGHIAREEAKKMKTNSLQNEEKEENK
Test: SPR (Biacore T200), 6His-Sp17 at 6.25-300 nM
From the text: The lines correspond, from highest to lowest, to fitted cycles for 300 nanomolar, 100 nanomolar, 50 nanomolar, 25 nanomolar, 12.5 nanomolar, and 6.25 nanomolar concentrations of 6His-Sp17.
The nucleotide sequences encoding the VH and VL regions of Example 1 were cloned into a mouse IgG2a heavy chain gene and a mouse kappa light chain gene, respectively, and expressed in CHO—S cells to produce a mouse-human chimeric antibody, which was named chAB2. Successful generation of the antibody was confirmed by SDS-PAGE and western blotting using anti-mouse heavy and light chain antibodies and recombinant Sp17 protein (FIGS. 2 & 3). The chAB2 antibody was reactive to mouse surface Sp17 protein expressed on the mouse ovarian cancer cell line ID8 (FIG. 4).

- Kd: 2.07 nM
- koff: 0.00013 s⁻¹
- kon: 62600 M⁻¹ s⁻¹
B1: mouse-human chimeric anti-Sp17 IgG2a/kappa monoclonal antibody chAB2 (antibody, V domains shown)
VH: QVQLQQSGAEVKKPGSSVKVSCKASGGTFSSYAISWVRQAPGQGLEWMGRIIPILGIANYAQKFQGRVTITADKSTSTAYMELSSLRSEDTAVYYCARPSEEVVAAYGAFDIWGQGTTVTVSS
VL: EIVLTQSPLSLPVRPGEPASISCRASQSLLRSDGFNYLDWYLQKPGQSPQLLVYLGSNRASGVPDRFSGSGSGTDFTLKISRVEAEDVGVYYCMQAVQTPYIFGQGTKLEIK
notes: also called chimeric antibody; anti-Sp17 antibody chAB2
